Experiment [1] addresses T1, human EGFR recombinant extracellular domain protein (human, UniProt P00533 25-645).
T1 construct: extracellular domain
The experiment in a line: capture ELISA as in Example 1. Here is the method: (§1) Antibody to be tested was prepared by diluting in a stepwise 1:3 serial dilution ranging from 50 nM down to 0.28 pM and then added to the wells in duplicate. After one hour of incubation, plates were washed, and goat anti-human IgG Fab HRP-conjugated secondary antibody was added to each well and the plates were incubated for 1 hour. The plates were washed and TMB substrate was added and incubated for 5-20 min to allow color development. The stop solution was added to the wells at the end of reaction and the plates were read at 450 nm. Binding signal (absorbance at 450 nm) was plotted against antibody concentration using Prism software.
On the technique in general: In an ELISA, binding on a coated surface is turned into a signal by an enzyme label.

The target in experiment [2] is T2, human HER3 recombinant extracellular domain protein (human, UniProt P21860 20-643).
T2 construct: extracellular domain
Nature of the experiment: capture ELISA as in Example 1. The protocol:
as §1

In experiment [3] the target is T3, human HER4 recombinant extracellular domain protein (human, UniProt Q15303 26-651).
T3 construct: extracellular domain
T3 sequence (looked up): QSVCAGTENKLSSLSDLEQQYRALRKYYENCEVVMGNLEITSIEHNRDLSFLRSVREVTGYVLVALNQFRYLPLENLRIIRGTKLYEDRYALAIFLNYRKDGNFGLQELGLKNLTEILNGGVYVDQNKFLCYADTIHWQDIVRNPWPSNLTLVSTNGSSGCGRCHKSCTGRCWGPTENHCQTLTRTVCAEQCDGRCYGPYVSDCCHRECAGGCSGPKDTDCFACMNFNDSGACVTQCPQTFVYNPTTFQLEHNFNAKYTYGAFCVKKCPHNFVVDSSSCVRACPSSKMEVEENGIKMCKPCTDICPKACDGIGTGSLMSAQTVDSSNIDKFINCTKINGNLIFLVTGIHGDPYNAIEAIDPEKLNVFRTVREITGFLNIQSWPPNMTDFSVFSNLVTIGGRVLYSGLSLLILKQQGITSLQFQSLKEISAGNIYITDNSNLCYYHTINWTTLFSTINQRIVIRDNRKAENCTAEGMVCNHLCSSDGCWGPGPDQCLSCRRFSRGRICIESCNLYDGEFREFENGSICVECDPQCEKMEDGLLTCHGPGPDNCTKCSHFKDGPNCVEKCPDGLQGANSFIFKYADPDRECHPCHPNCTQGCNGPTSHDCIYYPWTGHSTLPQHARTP
Nature of the experiment: capture ELISA as in Example 1. Here is the method:
as §1

A further experiment concerns the target C1q (Homo sapiens (Human), UniProt P02745 23-245; P02746 28-253; P02747 29-245). Nature of the experiment: BIAcore per table head; method for C1q not described.
The next experiment concerns the target T4, human FcγRI (human, UniProt P12314 16-288).
T4 construct: also called FcgRI
The experiment in a line: SPR, antibody immobilised, receptor injected, steady-state fit (table head: BIAcore; paragraph 688: ProteOn XPR36). Here is the method: (§2) The binding constants (KD) for the binding of anti-HER2 bispecific antibodies to human FcγRs were measured on a ProteOn XPR36 instrument. Briefly, the bispecific antibodies were immobilized at high density on a GLC sensor chip using a standard amino coupling chemistry as outlined by the instrument manufacturer. The final surface density of IgG measured approximately 3000 RU. A reference flow cell was also prepared on this sensor chip using the identical immobilization protocol minus protein. […] Each concentration of FcγR was injected over both the bispecific antibody and reference cell surfaces at a flow rate of 25 μL/min for 8 min, during which binding data were collected. Between injections, the surfaces were regenerated (i.e., bound FcγR was removed) with a 60-sec pulse of 5 mM HCl. Several buffer injections were also interspersed throughout the injection series. Later, one of these buffer injections along with the reference cell data was used to correct the binding data for any injection artifacts (e.g., nonspecific binding) through a technique commonly referred to as “double-referencing” (Myszka, 1999). After all binding data were collected, individual data sets were averaged for binding (Response at equilibrium [Req]) at each concentration (C), and then fit to a 1:1 binding isotherm (Req vs. C) plot.

A further experiment deals with T5, human FcγRIIA (human, UniProt P12318 36-218).
T5 construct: also called FcgRIIa
T5 sequence (looked up): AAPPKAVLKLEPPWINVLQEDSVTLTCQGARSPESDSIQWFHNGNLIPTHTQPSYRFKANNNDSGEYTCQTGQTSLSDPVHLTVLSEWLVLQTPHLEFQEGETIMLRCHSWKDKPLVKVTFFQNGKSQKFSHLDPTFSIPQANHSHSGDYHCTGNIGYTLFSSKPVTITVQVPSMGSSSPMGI
The description is as above. Here is the method:
as §2

The target of another experiment is T6, human FcγRIIb (human, UniProt P31994 43-217).
T6 construct: also called FcgRIIb
T6 sequence (looked up): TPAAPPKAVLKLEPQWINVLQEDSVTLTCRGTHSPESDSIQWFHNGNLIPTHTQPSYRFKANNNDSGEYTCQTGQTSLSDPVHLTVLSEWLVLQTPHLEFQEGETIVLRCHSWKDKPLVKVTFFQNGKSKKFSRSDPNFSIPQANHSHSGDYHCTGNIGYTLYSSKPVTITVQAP
The experiment is described as above. The protocol: as §2

For a further experiment, the target named is T7, human FcγRIIIA-158F (human, UniProt P08637 17-208).
T7 construct: also called FcgRIIIa (158F)
T7 sequence (P08637 17-208 limits assumed): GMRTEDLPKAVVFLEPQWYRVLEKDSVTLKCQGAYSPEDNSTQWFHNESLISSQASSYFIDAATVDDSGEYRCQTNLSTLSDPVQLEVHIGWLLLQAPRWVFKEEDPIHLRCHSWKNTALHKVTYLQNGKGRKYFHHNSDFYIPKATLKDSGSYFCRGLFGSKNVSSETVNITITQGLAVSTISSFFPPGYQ
Described as above. The protocol: as §2

For a further experiment, the target named is T8, human FcγRIIIA-158V (human, UniProt P08637 17-208).
T8 construct: also called FcgRIIIa (158V); hFcgRIIIA-158V
T8 sequence (P08637 17-208 F176V limits assumed): as the sequence (P08637 17-208 limits assumed) above, with F160V counted along it
The description is as above. Here is the method: as §2

The record followed here is US20170291955A1 (AstraZeneca / MedImmune, published 2017).

C1q, sequence (P02745 23-245 limits assumed, chain 1 of 3): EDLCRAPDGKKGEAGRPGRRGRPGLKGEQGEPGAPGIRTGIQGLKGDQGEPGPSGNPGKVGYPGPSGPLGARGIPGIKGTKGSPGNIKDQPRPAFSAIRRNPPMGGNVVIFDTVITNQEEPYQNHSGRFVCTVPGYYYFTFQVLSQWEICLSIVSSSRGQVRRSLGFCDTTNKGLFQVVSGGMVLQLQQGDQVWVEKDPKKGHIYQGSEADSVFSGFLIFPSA
C1q, sequence (P02746 28-253 limits assumed, chain 2 of 3): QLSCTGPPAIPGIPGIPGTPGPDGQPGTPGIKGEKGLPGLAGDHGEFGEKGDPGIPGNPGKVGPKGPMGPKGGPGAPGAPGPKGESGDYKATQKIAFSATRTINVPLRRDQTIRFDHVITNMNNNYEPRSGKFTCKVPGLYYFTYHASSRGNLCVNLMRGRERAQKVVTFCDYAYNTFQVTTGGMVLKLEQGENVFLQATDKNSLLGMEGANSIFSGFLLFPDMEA
C1q, sequence (P02747 29-245 limits assumed, chain 3 of 3): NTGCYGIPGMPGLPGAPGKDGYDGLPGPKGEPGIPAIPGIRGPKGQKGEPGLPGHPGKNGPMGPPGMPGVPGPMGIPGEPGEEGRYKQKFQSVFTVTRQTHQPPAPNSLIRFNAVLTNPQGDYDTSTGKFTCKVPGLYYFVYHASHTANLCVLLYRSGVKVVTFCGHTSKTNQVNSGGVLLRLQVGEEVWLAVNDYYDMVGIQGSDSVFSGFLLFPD
T4 sequence (P12314 16-288 limits assumed): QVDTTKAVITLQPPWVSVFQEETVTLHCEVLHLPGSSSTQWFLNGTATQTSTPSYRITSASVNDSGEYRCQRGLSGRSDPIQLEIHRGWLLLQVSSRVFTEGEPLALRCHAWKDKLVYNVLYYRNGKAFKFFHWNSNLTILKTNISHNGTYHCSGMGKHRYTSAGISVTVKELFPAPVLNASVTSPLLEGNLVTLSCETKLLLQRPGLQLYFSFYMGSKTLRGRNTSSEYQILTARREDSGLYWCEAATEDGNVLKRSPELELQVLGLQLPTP

B1: Bs2Ab-39SH (bispecific antibody, human IgG1, kappa)
heavy: not shown
light: DIVMTQTPLSLSVTPGQPASISCKSSQSVFFRSNNKNILAWYLQKPGQPPQLLIYWASSRESGVPDRFSGSGSGTDFTLKISRVEAEDVGVYYCQQYFGSPFTFGPGTKVDIKRTVAAPSVFIFPPSDEQLKSGTASVVCLLNNFYPREAKVQWKVDNALQSGNSQESVTEQDSKDSTYSLSSTLTLSKADYEKHKVYACEVTHQGLSSPVTKSFNRGEC
As to B1, the binding result in experiment [1], in experiment [2] and in experiment [3] was “no binding” each time. Besides, the Kd turned out to be 75.6 nM in the experiment with C1q; 7 nM with human FcγRI; 1300 nM with human FcγRIIA; 2750 nM with human FcγRIIb; 1990 nM with human FcγRIIIA-158F.

B2: Bs4Ab-39SH_aFuc (bispecific antibody)
heavy: not shown
light: DIVMTQTPLSLSVTPGQPASISCKSSQSVFFRSNNKNILAWYLQKPGQPPQLLIYWASSRESGVPDRFSGSGSGTDFTLKISRVEAEDVGVYYCQQYFGSPFTFGPGTKVDIKRTVAAPSVFIFPPSDEQLKSGTASVVCLLNNFYPREAKVQWKVDNALQSGNSQESVTEQDSKDSTYSLSSTLTLSKADYEKHKVYACEVTHQGLSSPVTKSFNRGEC
notes: also called afucosylated Bs4Ab-39SH; homogenously afucosylated Bs4Ab-39SH
For the molecule B2, the Kd with C1q is 446 nM; in the experiment with human FcγRI, 0.98 nM; with human FcγRIIA it was 1260 nM; with human FcγRIIb it was 2560 nM; with human FcγRIIIA-158F, 223 nM; in the experiment with human FcγRIIIA-158V, 45 nM.

B3: Bs3Ab-39SH (bispecific antibody, human IgG1, kappa)
heavy: not shown
light: DIVMTQTPLSLSVTPGQPASISCKSSQSVFFRSNNKNILAWYLQKPGQPPQLLIYWASSRESGVPDRFSGSGSGTDFTLKISRVEAEDVGVYYCQQYFGSPFTFGPGTKVDIKRTVAAPSVFIFPPSDEQLKSGTASVVCLLNNFYPREAKVQWKVDNALQSGNSQESVTEQDSKDSTYSLSSTLTLSKADYEKHKVYACEVTHQGLSSPVTKSFNRGEC
For B3, the binding result in [1], in [2] and in experiment [3] was “no binding” throughout.

B4: Bs4Ab-39SH (bispecific antibody)
heavy: not shown
light: DIVMTQTPLSLSVTPGQPASISCKSSQSVFFRSNNKNILAWYLQKPGQPPQLLIYWASSRESGVPDRFSGSGSGTDFTLKISRVEAEDVGVYYCQQYFGSPFTFGPGTKVDIKRTVAAPSVFIFPPSDEQLKSGTASVVCLLNNFYPREAKVQWKVDNALQSGNSQESVTEQDSKDSTYSLSSTLTLSKADYEKHKVYACEVTHQGLSSPVTKSFNRGEC
Consider B4, for which the binding result in [1], in [2] and in experiment [3] was “no binding” each time. In addition, the Kd with C1q worked out at 88.6 nM; with human FcγRI, 13 nM; in the experiment with human FcγRIIA it was 1190 nM; in the experiment with human FcγRIIb, 2790 nM; with human FcγRIIIA-158F, 1780 nM.

B5: Bs2Ab-39SH_aFuc (bispecific antibody, human IgG1, kappa)
heavy: not shown
light: DIVMTQTPLSLSVTPGQPASISCKSSQSVFFRSNNKNILAWYLQKPGQPPQLLIYWASSRESGVPDRFSGSGSGTDFTLKISRVEAEDVGVYYCQQYFGSPFTFGPGTKVDIKRTVAAPSVFIFPPSDEQLKSGTASVVCLLNNFYPREAKVQWKVDNALQSGNSQESVTEQDSKDSTYSLSSTLTLSKADYEKHKVYACEVTHQGLSSPVTKSFNRGEC
notes: also called afucosylated Bs2Ab-39SH; homogenously afucosylated Bs2Ab-39SH
In the case of B5, the Kd in the experiment with C1q amounted to 130 nM; in the experiment with human FcγRI, 0.98 nM; with human FcγRIIA, 1250 nM; with human FcγRIIb, 2400 nM; with human FcγRIIIA-158F it was 216 nM; with human FcγRIIIA-158V it was 40 nM.

B6: Bs4-4T (bispecific antibody)
heavy: not shown
light: DIVMTQTPLSLSVTPGQPASISCKSSQSVFFRSNNKNILAWYLQKPGQPPQLLIYWASSRESGVPDRFSGSGSGTDFTLKISRVEAEDVGVYYCQQYFGSPFTFGPGTKVDIKRTVAAPSVFIFPPSDEQLKSGTASVVCLLNNFYPREAKVQWKVDNALQSGNSQESVTEQDSKDSTYSLSSTLTLSKADYEKHKVYACEVTHQGLSSPVTKSFNRGEC
modifications: tubulysin 1508 (Compound T32) on engineered Cys 239 and Cys 442 (EU index), thiol-maleimide linkage
notes: Antibody-drug conjugate, DAR about 4; also called Bs4Ab-4T; Bs4Ab-39SH-(FCC) conjugated to 4 tubulysins
On to B6, for which the binding result in [1], in experiment [2] and in experiment [3] was “no binding” throughout.

B7: Bs2-4T (bispecific antibody, name in EU numbering)
heavy: not shown
light: DIVMTQTPLSLSVTPGQPASISCKSSQSVFFRSNNKNILAWYLQKPGQPPQLLIYWASSRESGVPDRFSGSGSGTDFTLKISRVEAEDVGVYYCQQYFGSPFTFGPGTKVDIKRTVAAPSVFIFPPSDEQLKSGTASVVCLLNNFYPREAKVQWKVDNALQSGNSQESVTEQDSKDSTYSLSSTLTLSKADYEKHKVYACEVTHQGLSSPVTKSFNRGEC
modifications: tubulysin 1508 (Compound T32) on engineered Cys 239 and Cys 442 (EU index), thiol-maleimide linkage
notes: Antibody-drug conjugate, DAR about 4; also called Bs2Ab-4T; Bs2Ab-39SH-(FCC) construct conjugated to 4 tubulysins
As to B7, the binding result in experiment [1], in [2] and in [3] was “no binding” throughout.

One may read the Kd as the free concentration of one partner at which half of the binding sites on the other are occupied at equilibrium, for simple one-to-one binding.
